{
  "source": "paper PMC8297783",
  "about": "“Autocrine signaling by receptor tyrosine kinases in urothelial carcinoma of the bladder” (PLoS ONE, 2021)",
  "system": "FL3 cells",
  "assay": "cell proliferation assay, FL3 cells",
  "type": "cell-based, Human",
  "details": "1% FBS, 6 d, added MST1 alone 5 nM, relative to untreated cells",
  "data": [
    {"molecule": "MST1: exogenous cognate ligand of MST1R, added to cells at 5 nM (protein, UniProt P26927 19-711, looked up) Hepatocyte growth factor-like …: QRSPLNDFQVLRGTELQHLLHAVVPGPWQEDVADAEECAGRCGPLMDCRAFHYNVSSHGCQLLPWTQHSPHTRLRRSGRCDLFQKKDYVRTCIMNNGVGYRGTMATTVGGLPCQAWSHKFPNDHKYTPTLRNGLEENFCRNPDGDPGGPWCYTTDPAVRFQSCGIKSCREAACVWCNGEEYRGAVDRTESGRECQRWDLQHPHQHPFEPGKFLDQGLDDNYCRNPDGSERPWCYTTDPQIEREFCDLPRCGSEAQPRQEATTVSCFRGKGEGYRGTANTTTAGVPCQRWDAQIPHQHRFTPEKYACKDLRENFCRNPDGSEAPWCFTLRPGMRAAFCYQIRRCTDDVRPQDCYHGAGEQYRGTVSKTRKGVQCQRWSAETPHKPQFTFTSEPHAQLEENFCRNPDGDSHGPWCYTMDPRTPFDYCALRRCADDQPPSILDPPDQVQFEKCGKRVDRLDQRRSKLRVVGGHPGNSPWTVSLRNRQGQHFCGGSLVKEQWILTARQCFSSCHMPLTGYEVWLGTLFQNPQHGEPSLQRVPVAKMVCGPSGSQLVLLKLERSVTLNQRVALICLPPEWYVVPPGTKCEIAGWGETKGTGNDTVLNVALLNVISNQECNIKHRGRVRESEMCTEGLLAPVGACEGDYGGPLACFTHNCWVLEGIIIPNRVCARSRWPAVFTRVSVFVDWIHKVMRLG", "values": [
      {"measurement": "proliferation rate", "result": "significantly increased proliferation rate"}
    ]}
  ]
}
